Assay results from the supplement of paper PMC6757056.
± gives the standard deviation of the averaged measurements.

B1: library; a variant is named by its letters at N, in order (parent)
chain: GCUGUCACCGAGAAACUGUGAAGUAUAUCUUAAACCUGGGCACUUAAAAGAUAUAUGGAGUUAGUAGUGCAACCUGCUCGGUCUGAUGAGUCCNNNNNNGGACGAAACAGC

How the values were obtained:
cyclic di-GMP [1] = variants of: B1; assay: normalized RNA/DNA level without ligand (relative to sTRSVctl = 100) (log10 (% of sTRSVctl)); HEK293T; ligand: cyclic di-GMP (c-di-GMP-II aptamer); higher = less ribozyme self-cleavage, higher mRNA level; conditions: reporter: mCherry (pCS4076), ligand present: no
In short: (§1)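 Ribozyme switch library plasmids with mCherry reporters (eGFP in certain ligand experiments) went into HEK293T cells at 4 µg per 6-well well. Where ligand was used, it was applied 1 h before transfection, and total RNA was extracted with EDTA 72 h later for reverse transcription, amplification, barcoding and sequencing. RNA level is the RNA-to-DNA read ratio normalized to a spiked-in non-cleaving sequence or to the leading sequences, then scaled and log-transformed. Scaling was ×100 with log10, the leading set comprised 25 sequences, and the cutoff was ≥100 DNA reads.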

cyclic di-GMP [2] = variants of: B1; assay: normalized RNA/DNA level with ligand (relative to sTRSVctl = 100) (log10 (% of sTRSVctl)); HEK293T; ligand: cyclic di-GMP (c-di-GMP-II aptamer); ligand concentration (+) RNA-Seq: 1 mM; higher = less ribozyme self-cleavage, higher mRNA level; conditions: reporter: mCherry (pCS4076), ligand present: yes
In short: as §1

Variant	normalized RNA/DNA level without ligand (log10) (cyclic di-GMP [1])	normalized RNA/DNA level with ligand (log10) (cyclic di-GMP [2])
GCUGUCACCGAGAAACUGUGAAGUAUAUCUUAAACCUGGGCACUUAAAAGAUAUAUGGAGUUAGUAGUGCAACCUGCUCGGUCUGAUGAGUCCUACGUCGGACGAAACAGC [UACGUC]	1.69 ± 0.06	1.81 ± 0.13
GCUGUCACCGAGAAACUGUGAAGUAUAUCUUAAACCUGGGCACUUAAAAGAUAUAUGGAGUUAGUAGUGCAACCUGCUCGGUCUGAUGAGUCCAUCGUCGGACGAAACAGC [AUCGUC]	1.85 ± 0.056	1.92 ± 0.092
GCUGUCACCGAGAAACUGUGAAGUAUAUCUUAAACCUGGGCACUUAAAAGAUAUAUGGAGUUAGUAGUGCAACCUGCUCGGUCUGAUGAGUCCUGUGAGGGACGAAACAGC [UGUGAG]	1.7 ± 0.038	1.87 ± 0.07
GCUGUCACCGAGAAACUGUGAAGUAUAUCUUAAACCUGGGCACUUAAAAGAUAUAUGGAGUUAGUAGUGCAACCUGCUCGGUCUGAUGAGUCCCGCCGAGGACGAAACAGC [CGCCGA]	1.6 ± 0.065	1.81 ± 0.072
GCUGUCACCGAGAAACUGUGAAGUAUAUCUUAAACCUGGGCACUUAAAAGAUAUAUGGAGUUAGUAGUGCAACCUGCUCGGUCUGAUGAGUCCCGAUUUGGACGAAACAGC [CGAUUU]	1.43 ± 0.11	1.64 ± 0.13
GCUGUCACCGAGAAACUGUGAAGUAUAUCUUAAACCUGGGCACUUAAAAGAUAUAUGGAGUUAGUAGUGCAACCUGCUCGGUCUGAUGAGUCCGUCUCUGGACGAAACAGC [GUCUCU]	1.714 ± 0.011	1.86 ± 0.095
GCUGUCACCGAGAAACUGUGAAGUAUAUCUUAAACCUGGGCACUUAAAAGAUAUAUGGAGUUAGUAGUGCAACCUGCUCGGUCUGAUGAGUCCCUUUGAGGACGAAACAGC [CUUUGA]	1.66 ± 0.019	1.79 ± 0.11
GCUGUCACCGAGAAACUGUGAAGUAUAUCUUAAACCUGGGCACUUAAAAGAUAUAUGGAGUUAGUAGUGCAACCUGCUCGGUCUGAUGAGUCCCACUCAGGACGAAACAGC [CACUCA]	1.39 ± 0.1	1.62 ± 0.093
GCUGUCACCGAGAAACUGUGAAGUAUAUCUUAAACCUGGGCACUUAAAAGAUAUAUGGAGUUAGUAGUGCAACCUGCUCGGUCUGAUGAGUCCUAUCGCGGACGAAACAGC [UAUCGC]	1.76 ± 0.019	1.83 ± 0.15
GCUGUCACCGAGAAACUGUGAAGUAUAUCUUAAACCUGGGCACUUAAAAGAUAUAUGGAGUUAGUAGUGCAACCUGCUCGGUCUGAUGAGUCCAGGAGCGGACGAAACAGC [AGGAGC]	1.61 ± 0.065	1.7 ± 0.13
GCUGUCACCGAGAAACUGUGAAGUAUAUCUUAAACCUGGGCACUUAAAAGAUAUAUGGAGUUAGUAGUGCAACCUGCUCGGUCUGAUGAGUCCGGCGAAGGACGAAACAGC [GGCGAA]	1.558 ± 0.0061	1.77 ± 0.2
GCUGUCACCGAGAAACUGUGAAGUAUAUCUUAAACCUGGGCACUUAAAAGAUAUAUGGAGUUAGUAGUGCAACCUGCUCGGUCUGAUGAGUCCCUACUCGGACGAAACAGC [CUACUC]	1.7 ± 0.034	1.83 ± 0.069
GCUGUCACCGAGAAACUGUGAAGUAUAUCUUAAACCUGGGCACUUAAAAGAUAUAUGGAGUUAGUAGUGCAACCUGCUCGGUCUGAUGAGUCCGGCCAGGGACGAAACAGC [GGCCAG]	1.74 ± 0.0068	1.85 ± 0.025
GCUGUCACCGAGAAACUGUGAAGUAUAUCUUAAACCUGGGCACUUAAAAGAUAUAUGGAGUUAGUAGUGCAACCUGCUCGGUCUGAUGAGUCCCCCCAGGGACGAAACAGC [CCCCAG]	1.679 ± 0.008	1.82 ± 0.11
GCUGUCACCGAGAAACUGUGAAGUAUAUCUUAAACCUGGGCACUUAAAAGAUAUAUGGAGUUAGUAGUGCAACCUGCUCGGUCUGAUGAGUCCCUCUCGGGACGAAACAGC [CUCUCG]	1.89 ± 0.031	1.96 ± 0.1
GCUGUCACCGAGAAACUGUGAAGUAUAUCUUAAACCUGGGCACUUAAAAGAUAUAUGGAGUUAGUAGUGCAACCUGCUCGGUCUGAUGAGUCCCCCUUGGGACGAAACAGC [CCCUUG]	1.643 ± 0.0095	1.81 ± 0.13
GCUGUCACCGAGAAACUGUGAAGUAUAUCUUAAACCUGGGCACUUAAAAGAUAUAUGGAGUUAGUAGUGCAACCUGCUCGGUCUGAUGAGUCCUAGGAUGGACGAAACAGC [UAGGAU]	1.58 ± 0.049	1.76 ± 0.078
GCUGUCACCGAGAAACUGUGAAGUAUAUCUUAAACCUGGGCACUUAAAAGAUAUAUGGAGUUAGUAGUGCAACCUGCUCGGUCUGAUGAGUCCUGGCCGGGACGAAACAGC [UGGCCG]	1.9 ± 0.067	1.96 ± 0.1
GCUGUCACCGAGAAACUGUGAAGUAUAUCUUAAACCUGGGCACUUAAAAGAUAUAUGGAGUUAGUAGUGCAACCUGCUCGGUCUGAUGAGUCCAGCGCGGGACGAAACAGC [AGCGCG]	1.708 ± 0.0043	1.83 ± 0.12
GCUGUCACCGAGAAACUGUGAAGUAUAUCUUAAACCUGGGCACUUAAAAGAUAUAUGGAGUUAGUAGUGCAACCUGCUCGGUCUGAUGAGUCCAACCGCGGACGAAACAGC [AACCGC]	1.718 ± 0.0043	1.86 ± 0.1
GCUGUCACCGAGAAACUGUGAAGUAUAUCUUAAACCUGGGCACUUAAAAGAUAUAUGGAGUUAGUAGUGCAACCUGCUCGGUCUGAUGAGUCCCCUCUGGGACGAAACAGC [CCUCUG]	1.63 ± 0.058	1.81 ± 0.1
GCUGUCACCGAGAAACUGUGAAGUAUAUCUUAAACCUGGGCACUUAAAAGAUAUAUGGAGUUAGUAGUGCAACCUGCUCGGUCUGAUGAGUCCACUUCCGGACGAAACAGC [ACUUCC]	1.776 ± 0.013	1.89 ± 0.08
GCUGUCACCGAGAAACUGUGAAGUAUAUCUUAAACCUGGGCACUUAAAAGAUAUAUGGAGUUAGUAGUGCAACCUGCUCGGUCUGAUGAGUCCGCCCAGGGACGAAACAGC [GCCCAG]	1.9 ± 0.036	1.97 ± 0.095
GCUGUCACCGAGAAACUGUGAAGUAUAUCUUAAACCUGGGCACUUAAAAGAUAUAUGGAGUUAGUAGUGCAACCUGCUCGGUCUGAUGAGUCCGCCGUAGGACGAAACAGC [GCCGUA]	1.57 ± 0.099	1.74 ± 0.068
GCUGUCACCGAGAAACUGUGAAGUAUAUCUUAAACCUGGGCACUUAAAAGAUAUAUGGAGUUAGUAGUGCAACCUGCUCGGUCUGAUGAGUCCGUAAACGGACGAAACAGC [GUAAAC]	1.57 ± 0.017	1.74 ± 0.038
GCUGUCACCGAGAAACUGUGAAGUAUAUCUUAAACCUGGGCACUUAAAAGAUAUAUGGAGUUAGUAGUGCAACCUGCUCGGUCUGAUGAGUCCUUCGAAGGACGAAACAGC [UUCGAA]	1.6 ± 0.041	1.82 ± 0.043
